# In paper PMC7515959, “Imaging angiogenesis in patients with head and neck squamous cell carcinomas by [^68Ga]Ga-DOTA-E-[c(RGDfK)]2 PET/CT” (European Journal of Nuclear Medicine and Molecular Imaging, 2020):
# What was measured:
# αvβ3 integrin [1] = system: T1, αvβ3 integrin; assay: clinical; conditions: human, in vivo, iv, 200 MBq, total radioactivity
# T1 construct: integrin αvβ3 predominantly expressed in endothelial cells of tumour-associated blood vessels; from tissue; host or cells: tumour lesions and lymph nodes of living patients with oral squamous cell carcinoma (in vivo PET/CT)
# Description: (§1) Included patients had no restrictions in food or medication intake. ^68Ga-RGD was administered intravenously using a slow bolus injection of 8 ml over 40 s (200 ± 29 MBq; range 119–218 MBq, 42 ± 8 μg; range 34–58 μg). The net injected dose was calculated by measuring the syringe before and after ^68Ga-RGD administration using a dedicated dose calibrator (VDS-405, Comecer, Joure, The Netherlands). Patients were monitored for (severe) adverse events according to the Common Terminology Criteria for Adverse Events, version 4.03. Venous blood samples at 1, 2, 5, 10, 30 and 90 min after injection were taken for pharmacokinetic and safety analysis. The concentration of ^68Ga-RGD in the blood samples (Bq/ml) was calculated by gamma counter (Wizard Detector Gamma Counter, PerkinElmer Inc., Waltham, MA, USA) while simultaneously measuring 1% standards. Safety analysis included a complete blood count test and assessment of kidney and liver function by measuring the eGFR (MDRD), total bilirubin and aspartate aminotransferase and alanine aminotransferase levels.
# (§2) Five patients underwent three static whole-body PET/CT at 30, 60 and 90 min post injection on a Biograph 40 mCT scanner (Siemens Medical Solutions, Knoxville TN, USA) equipped with a dual-slice CT for 4 min of PET data per bed position, with bed positions from the base of the skull to trochanter major. For each PET/CT image, two image reconstructions were used, with a TrueX algorithm with point spread function (PSF) and time of flight (TOF) measurements, using three iterations, 21 subsets, matrix size 256 × 256 (pixel spacing of 3.2 mm) or 200 × 200 (pixel spacing of 4.07 mm), full width at half maximum (FWHM) of 5 mm. Post-processing was performed using a 3D Gaussian filter kernel, 7.5 or 3 mm. The other five patients underwent 60 min dynamic ^68Ga-RGD PET/CT starting at start of injection, of the head and neck region (15 cm FOV), to obtain time–activity curves in malignant lesions. These images were reconstructed in 33 frames ([…], 10 × 5 s, 3 × 10 s, 2 × 15 s, 5 × 30 s, 5 × 120 s, 5 × 300 s and 2 × 600 s). For all patients, a low-dose CT scan was acquired for attenuation correction and anatomical reference, with an automatically modulated X-ray tube voltage and current (100 kV, 30 mA) using Care kV and Care Dose4D (Siemens Healthcare), 512 × 512 voxels; 0.98 pixel spacing; 3 mm slice thickness; 1 pitch. The CT images for anatomical reference were reconstructed with a B31f convolution kernel, slice thickness 5 mm.
# (§3) All ^68Ga-RGD PET/CT scans were evaluated by two experienced nuclear medicine physicians (WJGO, EHJGA) on a dedicated workstation (Oasis software, Segami Corporation, Columbia, MD, USA) with a PET/CT viewer for automatic image registration. A volume-of-interest (VOI) around the tumour mass was manually drawn to obtain a maximum standardised uptake value (SUVmax) of the tumour area—drawn on the static PET/CT image acquired 60 min post injection—and to determine the 41% SUVmax isocontour and SUVpeak (highest mean SUV value of 1 cm^3) within this tumour volume. The same analysis was applied on the dynamic imaging series, in which a reconstructed frame of 4 min (56–60 min p.i.) was extracted from the dynamic imaging series to obtain a static image for tumour volume delineation. The dynamic imaging series were also used to obtain time–activity curves using the PMOD Medical Imaging Program version 3.15 (PMOD technologies LLC, Zürich, Switzerland). Curves were estimated for both tumour lesions and background tissue. Tumour delineation was based on the evaluation in Oasis (Oasis software, Segami Corporation, Columbia, MD, USA), drawn on the last frame of the PET series, and subsequently copied to the other frames. For time–activity curves of the muscle, a VOI of 1.5 ml was defined in dorsolateral musculature (contralateral to the tumour) using the CT images and subsequently copied to the dynamic dataset. […]
# αvβ3 integrin [2] = biological target: T2, αvβ3 integrin (Homo sapiens, UniProt P05106+P06756); assay: clinical; conditions: in vivo
# T2 construct: integrin αvβ3 predominantly expressed in endothelial cells of tumour-associated blood vessels; from tissue; host or cells: tumour lesions and lymph nodes of living patients with oral squamous cell carcinoma (in vivo PET/CT)
# Description: as §1, §2, §3
# clinical = conditions: human, in vivo, iv, SUVmax tumour
# Description: as §1, §2, §3
# [3] = parameters: species or system human; conditions: in vivo
# Description: as §1
# [4] = parameters: species or system human; conditions: in vivo; remark: listed apart in the source
# Description: Five patients underwent three static whole-body PET/CT at 30, 60 and 90 min post injection on a Biograph 40 mCT scanner (Siemens Medical Solutions, Knoxville TN, USA) equipped with a dual-slice CT for 4 min of PET data per bed position, with bed positions from the base of the skull to trochanter major. For each PET/CT image, two image reconstructions were used, with a TrueX algorithm with point spread function (PSF) and time of flight (TOF) measurements, using three iterations, 21 subsets, matrix size 256 × 256 (pixel spacing of 3.2 mm) or 200 × 200 (pixel spacing of 4.07 mm), full width at half maximum (FWHM) of 5 mm. Post-processing was performed using a 3D Gaussian filter kernel, 7.5 or 3 mm. […]
# All ^68Ga-RGD PET/CT scans were evaluated by two experienced nuclear medicine physicians (WJGO, EHJGA) on a dedicated workstation (Oasis software, Segami Corporation, Columbia, MD, USA) with a PET/CT viewer for automatic image registration. […]
# Numerical data are presented as mean ± standard deviation (SD). […] The biological half-life of ^68Ga-RGD was calculated using bi-exponential regression analysis in MATLAB version R2014b (MathWorks, Natick, MA, USA). The analyses of optimal imaging time point and uptake values were analysed using SPSS Statistics, version 22.0.0.1 (IBM), with a one-way ANOVA followed by a Bonferroni post hoc test to adjust for multiple comparisons. […]
# [5] = parameters: species or system human; conditions: in vivo; remark: listed apart in the source
# Description: as §1, with “[…] The biological half-life of ^68Ga-RGD was calculated using bi-exponential regression” for “Safety”, “in MATLAB version R2014b (MathWorks, Natick, MA, USA). The analyses of optimal imaging time point and uptake values were analysed using SPSS Statistics, version 22.0.0.1 (IBM), with” for “included”, “one-way ANOVA followed by a Bonferroni post hoc” for “complete blood count”, “to adjust for multiple comparisons. […]” for “and assessment of kidney and liver function by measuring the eGFR (MDRD), total bilirubin and aspartate aminotransferase and alanine aminotransferase levels.”
# T2 sequence (P06756 31-889 limits assumed): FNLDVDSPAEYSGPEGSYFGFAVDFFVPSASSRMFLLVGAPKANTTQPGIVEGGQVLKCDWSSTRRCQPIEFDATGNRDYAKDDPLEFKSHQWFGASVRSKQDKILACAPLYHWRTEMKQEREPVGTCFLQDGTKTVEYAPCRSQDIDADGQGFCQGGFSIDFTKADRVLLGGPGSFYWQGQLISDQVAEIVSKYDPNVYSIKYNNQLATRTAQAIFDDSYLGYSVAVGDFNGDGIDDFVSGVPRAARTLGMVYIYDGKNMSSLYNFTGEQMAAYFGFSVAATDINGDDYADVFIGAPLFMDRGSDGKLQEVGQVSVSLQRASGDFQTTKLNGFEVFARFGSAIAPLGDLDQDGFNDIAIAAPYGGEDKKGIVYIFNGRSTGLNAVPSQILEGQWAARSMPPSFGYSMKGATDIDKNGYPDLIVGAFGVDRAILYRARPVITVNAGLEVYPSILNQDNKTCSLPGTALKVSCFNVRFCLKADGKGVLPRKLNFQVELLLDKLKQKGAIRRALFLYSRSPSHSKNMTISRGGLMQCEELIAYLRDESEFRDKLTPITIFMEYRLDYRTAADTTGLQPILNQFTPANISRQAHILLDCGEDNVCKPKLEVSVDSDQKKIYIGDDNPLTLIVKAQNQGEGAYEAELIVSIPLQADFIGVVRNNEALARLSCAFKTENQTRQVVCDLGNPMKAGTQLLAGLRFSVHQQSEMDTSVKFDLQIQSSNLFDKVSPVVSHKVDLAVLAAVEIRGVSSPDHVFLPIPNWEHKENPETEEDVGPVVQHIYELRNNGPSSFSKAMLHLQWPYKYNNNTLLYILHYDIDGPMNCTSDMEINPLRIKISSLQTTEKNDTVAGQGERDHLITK
# T2 sequence (P06756 891-1048 limits assumed): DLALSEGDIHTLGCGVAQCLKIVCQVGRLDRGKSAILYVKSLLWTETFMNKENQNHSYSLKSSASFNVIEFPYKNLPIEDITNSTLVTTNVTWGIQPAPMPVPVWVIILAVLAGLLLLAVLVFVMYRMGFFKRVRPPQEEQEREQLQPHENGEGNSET
# T2 sequence (P05106 27-788): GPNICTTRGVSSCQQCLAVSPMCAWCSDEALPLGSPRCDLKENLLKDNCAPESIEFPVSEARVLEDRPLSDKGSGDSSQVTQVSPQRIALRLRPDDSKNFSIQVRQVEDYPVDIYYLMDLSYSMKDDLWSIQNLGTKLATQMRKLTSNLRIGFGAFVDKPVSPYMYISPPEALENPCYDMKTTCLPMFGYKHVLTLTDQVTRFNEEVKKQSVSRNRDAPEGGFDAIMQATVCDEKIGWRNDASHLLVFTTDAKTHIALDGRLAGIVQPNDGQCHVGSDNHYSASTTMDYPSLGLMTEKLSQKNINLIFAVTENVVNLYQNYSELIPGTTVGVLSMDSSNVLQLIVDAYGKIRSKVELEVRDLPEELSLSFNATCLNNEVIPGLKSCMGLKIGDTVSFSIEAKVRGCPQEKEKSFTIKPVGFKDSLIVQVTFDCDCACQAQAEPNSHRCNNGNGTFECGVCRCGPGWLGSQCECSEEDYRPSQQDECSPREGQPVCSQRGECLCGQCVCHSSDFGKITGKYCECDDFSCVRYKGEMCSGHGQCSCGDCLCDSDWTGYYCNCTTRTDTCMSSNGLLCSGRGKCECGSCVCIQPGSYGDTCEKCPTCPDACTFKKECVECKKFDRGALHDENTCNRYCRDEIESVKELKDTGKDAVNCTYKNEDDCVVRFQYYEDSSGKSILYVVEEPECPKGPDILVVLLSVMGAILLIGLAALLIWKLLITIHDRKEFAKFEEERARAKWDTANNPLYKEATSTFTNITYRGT
structure (smiles),measurement,setting,value
"N=C(N)NCCC[C@@H]1NC(=O)[C@H](CCCCNC(=O)CC[C@H](NC(=O)CN2CCN(CC(=O)O)CCN(CC(=O)O)CCN(CC(=O)O)CC2)C(=O)NCCCC[C@@H]2NC(=O)[C@@H](Cc3ccccc3)NC(=O)[C@H](CC(=O)O)NC(=O)CNC(=O)[C@H](CCCNC(=N)N)NC2=O)NC(=O)[C@@H](Cc2ccccc2)NC(=O)[C@H](CC(=O)O)NC(=O)CNC1=O [^68Ga-RGD, [^68Ga]Ga-DOTA-E-[c(RGDfK)]2, metal not drawn]",SUV,αvβ3 integrin [1]; mean SUVmax in lymph nodes with radiotracer uptake,4.4 ± 2.3 SUV
same,SUV at 0.5 h,αvβ3 integrin [1]; mean SUVmax in tumour tissue,5.7 ± 0.8 SUV
same,SUV at 1 h,αvβ3 integrin [1]; mean SUVmax in tumour tissue,5.5 ± 1.2 SUV
same,SUV at 1.5 h,αvβ3 integrin [1]; mean SUVmax in tumour tissue,4.8 ± 1.2 SUV
same,"SUVmax in lymph nodes with radiotracer uptake, range",αvβ3 integrin [2],1.8-7.6
same,time after injection at which plateau phase was reached in tumour tissue,αvβ3 integrin [2],15 min
same,time after injection at which tracer accumulation in tumour tissue plateaued,αvβ3 integrin [2],10 min
same,tumour-to-muscle tissue ratio (mean),αvβ3 integrin [2],6.4 ± 0.7
same,SUV at 1 h,clinical,6.5 SUV
same,laboratory values,[3],within normal ranges
same,vital signs and (serious) adverse events,[3],no changes in vital signs nor any (serious) adverse events
same,distribution half-life (t1/2α),[4],0.14 ± 0.07 min
same,elimination half-life,[5],23.0 ± 2.3 min
same,uptake by blood cells (whole blood versus plasma concentration),[5],not taken up by the blood cells
